According to publication PMC11650696:

Assays:
[1] = target: Naip5 and Naip6 (Naip5/6) (mouse (endogenous in BMDMs))
[2] = target: TLR5 (UniProt O60602)
[3] = target: TLR5 (UniProt O60602); remark: listed apart in the source

Sequence of UniProt O60602 (O60602 21-858): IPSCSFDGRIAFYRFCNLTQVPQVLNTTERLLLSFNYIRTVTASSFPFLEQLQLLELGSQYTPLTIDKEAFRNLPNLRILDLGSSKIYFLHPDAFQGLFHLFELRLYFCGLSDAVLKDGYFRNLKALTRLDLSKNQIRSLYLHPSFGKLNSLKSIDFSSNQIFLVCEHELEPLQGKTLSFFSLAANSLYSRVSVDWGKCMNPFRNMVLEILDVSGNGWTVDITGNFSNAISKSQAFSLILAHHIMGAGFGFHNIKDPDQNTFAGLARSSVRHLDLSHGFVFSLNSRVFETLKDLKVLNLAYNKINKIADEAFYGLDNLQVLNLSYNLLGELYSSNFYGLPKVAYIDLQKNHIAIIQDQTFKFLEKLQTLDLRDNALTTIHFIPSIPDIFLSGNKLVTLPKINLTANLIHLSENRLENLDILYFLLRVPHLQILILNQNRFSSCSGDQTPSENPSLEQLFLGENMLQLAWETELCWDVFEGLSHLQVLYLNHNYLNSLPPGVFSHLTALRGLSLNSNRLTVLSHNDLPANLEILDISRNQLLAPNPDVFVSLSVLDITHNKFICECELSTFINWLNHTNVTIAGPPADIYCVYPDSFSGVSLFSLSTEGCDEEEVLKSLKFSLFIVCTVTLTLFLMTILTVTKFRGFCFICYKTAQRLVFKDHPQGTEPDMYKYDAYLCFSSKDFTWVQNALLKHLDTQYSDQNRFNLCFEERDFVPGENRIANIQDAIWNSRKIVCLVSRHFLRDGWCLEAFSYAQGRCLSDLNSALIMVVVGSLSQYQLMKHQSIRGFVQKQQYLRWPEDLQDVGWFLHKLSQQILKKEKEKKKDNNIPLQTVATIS

For “FliC flagellin monomers isolated from S. Typhimurium strain SL1344 (ΔflgM) (from UniProt P06179 1-495) (natural protein)”, the Inflammasome EC50 (IL-1β secretion of LPS-primed mouse BMDMs after transfection of the protein) [1] was 2 ng/mL, the TLR5 EC50 (NF-κB luciferase reporter assay, stably transfected CHO K1 cells) [2] was 1.2 ng/mL and the TLR5 stimulatory activity, EC50 (NF-κB luciferase reporter assay, stably transfected CHO K1 cells) [3] was 1.1 ng/mL.

Work on “FliC^ΔD3 (from UniProt P06179 1-495) (natural protein)” yielded a TLR5 EC50 (NF-κB luciferase reporter assay, stably transfected CHO K1 cells) [2] of 0.1 ng/mL.
